# From patent US20070265350A1 (UNIVERSITY OF IOWA RESEARCH FOUNDATION, published 2007)
# Target: T1, His-Cdc42 (UniProt P60953 1-191, limits assumed)
# T1 construct: Bought protein; also called His-tagged Cdc42; Cdc42-GTPγS; not shown: His tag
# Assay: in vitro pull-down of immobilized His-Cdc42 (nucleotide analogs as indicated) with purified bovine SOD1, Western blot (FIG. 1B)
# Description: Pull-down assays with GST- and His-tagged proteins. Dynabeads talon for histidine tagged proteins were washed with potassium phosphate buffer (PPHB) containing 100 mM KH₂PO₄, 10 mM NaCl, 0.25 mM MgCl₂ and 100 nM CaCl₂. […] The GTPases were either used directly or preloaded with either GTPγS or GDPβS and then washed. […] Samples were incubated at room temperature (RT) for 30 minutes with intermittent gentle agitation. […] The fourth wash was carried out in 50 mM Tris pH 6.8. Proteins were eluted using 20 μl 125 mM imidazole and samples were then mixed with SDS-PAGE reducing loading buffer and separated by SDS-PAGE for Western blotting.
# T1 sequence (P60953 whole entry): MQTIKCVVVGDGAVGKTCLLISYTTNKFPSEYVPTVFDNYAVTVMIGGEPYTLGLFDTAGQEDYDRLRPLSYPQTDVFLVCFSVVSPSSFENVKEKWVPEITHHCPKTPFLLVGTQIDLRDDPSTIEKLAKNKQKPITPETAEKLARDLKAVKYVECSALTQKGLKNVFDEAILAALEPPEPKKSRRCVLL
binder,measurement,value
"Bovine copper/zinc superoxide dismutase (SOD1), native (enzyme, Native, metalated enzyme as bought; also called bovine SOD1; Bov.SOD1) not shown",binding result,no binding
